Drawing on paper PMC11500415, “Chemical inhibition of stomatal differentiation by perturbation of the master-regulatory bHLH heterodimer via an ACT-Like domain” (Nature Communications, 2024), this text covers Kd for two molecules.

Holding throughout (details): both partners purified
Test [1] has as its target T1, recombinant SCRM (1-494) (A. thaliana, UniProt Q9LSE2 1-494).
T1 construct: Used in ITC and BLI; In BLI one partner was loaded GST-tagged on anti-GST probes; also called SCREAM; ICE1; source: E. coli BL21, purified (glutathione resin, thrombin, Superdex-200); not shown: GST, N-terminal, cleaved
T1 sequence (looked up): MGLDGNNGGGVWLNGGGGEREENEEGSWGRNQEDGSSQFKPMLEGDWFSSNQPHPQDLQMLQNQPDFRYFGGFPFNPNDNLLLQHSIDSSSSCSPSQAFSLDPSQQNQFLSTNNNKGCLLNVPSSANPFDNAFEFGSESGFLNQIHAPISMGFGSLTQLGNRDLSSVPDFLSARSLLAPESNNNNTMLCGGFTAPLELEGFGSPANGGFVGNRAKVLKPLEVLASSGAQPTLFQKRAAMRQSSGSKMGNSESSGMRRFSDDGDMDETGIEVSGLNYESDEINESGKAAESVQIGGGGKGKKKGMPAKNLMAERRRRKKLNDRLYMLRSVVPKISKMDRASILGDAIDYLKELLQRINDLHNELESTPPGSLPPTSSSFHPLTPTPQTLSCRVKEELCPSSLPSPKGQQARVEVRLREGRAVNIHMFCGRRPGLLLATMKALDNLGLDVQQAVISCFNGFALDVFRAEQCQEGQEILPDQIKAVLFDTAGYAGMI
Briefly: BLI; Octet Red96, anti-GST probes loaded with 500 nM GST tagged protein, 30 °C, 1× PBS, 2% DMSO, 0.02% Tween20; MUTE pre-incubated with Stomidazolone.

For test [2], the target named is T1, recombinant SCRM (1-494). Briefly: BLI; Octet Red96, anti-GST probes loaded with 500 nM GST tagged protein, 30 °C, 1× PBS, 2% DMSO, 0.02% Tween20; 1:1 model, steady-state analysis; without Stomidazolone. (In BLI a coated tip is dipped into the sample, and binding shifts an interference pattern.)
Test [3] concerns the target T1, recombinant SCRM (1-494). Briefly: ITC; Malvern PEAQ-ITC, 30 °C, PBS pH 7.4, 2% DMSO, 1 mM DTT; without Stomidazolone. For orientation: ITC needs no label: the signal is the heat of the interaction.
Test [4] has as its target T1, recombinant SCRM (1-494). Briefly: ITC; Malvern PEAQ-ITC, 30 °C, PBS pH 7.4, 2% DMSO, 1 mM DTT; MUTE pre-incubated with Stomidazolone.

B1: recombinant MUTE (1-202), as used in BLI (natural protein, A. thaliana, UniProt Q9M8K6 1-202, looked up)
chain: MSHIAVERNRRRQMNEHLKSLRSLTPCFYIKRGDQASIIGGVIEFIKELQQLVQVLESKKRRKTLNRPSFPYDHQTIEPSSLGAATTRVPFSRIENVMTTSTFKEVGACCNSPHANVEAKISGSNVVLRVVSRRIVGQLVKIISVLEKLSFQVLHLNISSMEETVLYFFVVKIGLECHLSLEELTLEVQKSFVSDEVIVSTN
notes: also called full-length MUTE; source: E. coli BL21, purified (glutathione resin)
B1: the Kd in test [1] is 856 ± 15.1 nM; in test [2] it was 7.5 ± 1.2 nM.

B2: recombinant MUTE (1-202), as used in ITC (natural protein, A. thaliana, UniProt Q9M8K6 1-202, looked up)
chain: MSHIAVERNRRRQMNEHLKSLRSLTPCFYIKRGDQASIIGGVIEFIKELQQLVQVLESKKRRKTLNRPSFPYDHQTIEPSSLGAATTRVPFSRIENVMTTSTFKEVGACCNSPHANVEAKISGSNVVLRVVSRRIVGQLVKIISVLEKLSFQVLHLNISSMEETVLYFFVVKIGLECHLSLEELTLEVQKSFVSDEVIVSTN
notes: also called full-length MUTE; source: E. coli BL21, purified (glutathione resin, thrombin, Superdex-200); not shown: GST, N-terminal, cleaved
Turning to B2, the results for the Kd in test [3] and in test [4] were 9.5 ± 1.6 nM and 900 ± 34.5 nM, respectively.

Broadly, the Kd is the constant that tells how readily two partners part at equilibrium.
